B1: SNAP25 15-mer peptide (wild type) containing the zDABM [not stated] / His6-tagged AR domain (residues 51–288) of zDHHC17 [human] (parent)
chain 1: THIDDYSTWDIVKATQYGIYERCRELVEAGYDVRQPDKENVTLLHWAAINNRIDLVKYYISKGAIVDQLGGDLNSTPLHWATRQGHLSMVVQLMKYGADPSLIDGEGCSCIHLAAQFGHTSIVAYLIAKGQDVDMMDQNGMTPLMWAAYRTHSVDPTRLLLTFNVSVNLGDKYHKNTALHWAVLAGNTTVISLLLEAGANVDAQNIKGESALDLAKQRKNVWMINHLQEARQAKGYDN
chain 2: QDGVVASQPARVVDE
B2: CSPα 15-mer peptide (wild type) containing the zDABM [not stated] / His6-tagged AR domain (residues 51–288) of zDHHC17 [human] (parent)
chain 1: B1 chain 1
chain 2: TDTPIVIQPASATET

Variants of: B1
Test: far-Western blotting on peptide array
Conditions: with His6-tagged AR domain (residues 51–288) of zDHHC17 [human]; ARzD17-His 500 nm in PBS-T, overnight, 4 °C
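Also: PSSM score: binding signal versus wild type scaled to sum 1 per position.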

Screen value, < 0.005:
chain 2 A10D
chain 2 V4H
chain 2 V4R
chain 2 V4K
chain 2 V4A
chain 2 V4W
chain 2 V4E
chain 2 V4N
chain 2 V4M
chain 2 V4D
chain 2 V4L
chain 2 V4Q
chain 2 V4Y
chain 2 V4T
chain 2 V4G
chain 2 V4F
chain 2 V4S
chain 2 V5S
chain 2 V5D
chain 2 V5M
chain 2 V5A
chain 2 V5P
chain 2 V5N
chain 2 V5L
chain 2 V5G
chain 2 V5Y
chain 2 V5K
chain 2 V5W
chain 2 V5E
chain 2 V5T
chain 2 V5H
chain 2 V5Q
chain 2 Q8T
chain 2 Q8A
chain 2 Q8V
chain 2 Q8I
chain 2 Q8G
chain 2 Q8S
chain 2 Q8N
chain 2 Q8P
chain 2 Q8W
chain 2 Q8F
chain 2 Q8Y
chain 2 Q8E
chain 2 Q8H
chain 2 Q8D
chain 2 S7G
chain 2 S7P
chain 2 A6G
chain 2 A6P
chain 2 V12D
chain 2 V12E
chain 2 R11Q
chain 2 R11F
chain 2 R11N
chain 2 R11E
chain 2 R11T
chain 2 R11M
chain 2 R11Y
chain 2 R11D
chain 2 R11I
chain 2 R11V
chain 2 R11L
chain 2 P9R
chain 2 P9C
chain 2 P9D
chain 2 P9H
chain 2 P9W
chain 2 P9N
chain 2 P9L
chain 2 P9Q
chain 2 P9T
chain 2 P9Y
chain 2 P9S
chain 2 P9A
chain 2 P9K
chain 2 P9F
chain 2 P9E
chain 2 P9V
chain 2 P9G
chain 2 P9M

Variants of: B2
Test: far-Western blotting on peptide array
Conditions: with His6-tagged AR domain (residues 51–288) of zDHHC17 [human]; ARzD17-His 500 nm in PBS-T, overnight, 4 °C

Screen value, < 0.005:
chain 2 I7P
chain 2 V6A
chain 2 V6G
chain 2 V6P
chain 2 V6D
chain 2 A10D
chain 2 P4L
chain 2 P4F
chain 2 P4Q
chain 2 P4Y
chain 2 P4D
chain 2 P4N
chain 2 P4S
chain 2 P4K
chain 2 P4M
chain 2 P4R
chain 2 Q8H
chain 2 Q8L
chain 2 Q8E
chain 2 Q8V
chain 2 Q8Y
chain 2 Q8S
chain 2 Q8I
chain 2 Q8R
chain 2 Q8N
chain 2 Q8P
chain 2 Q8K
chain 2 Q8G
chain 2 Q8W
chain 2 Q8F
chain 2 Q8T
chain 2 Q8A
chain 2 Q8D
chain 2 I5H
chain 2 I5P
chain 2 I5R
chain 2 I5E
chain 2 I5Y
chain 2 I5W
chain 2 I5G
chain 2 I5T
chain 2 I5F
chain 2 I5D
chain 2 I5Q
chain 2 I5M
chain 2 I5S
chain 2 I5A
chain 2 I5K
chain 2 I5N
chain 2 I5L
chain 2 S11E
chain 2 S11D
chain 2 P9M
chain 2 P9G
chain 2 P9K
chain 2 P9L
chain 2 P9F
chain 2 P9I
chain 2 P9V
chain 2 P9T
chain 2 P9E
chain 2 P9S
chain 2 P9W
chain 2 P9C
chain 2 P9H
chain 2 P9D
chain 2 P9Q
chain 2 P9R
chain 2 P9A
chain 2 P9Y
chain 2 P9N
